Read-outs that look alike come from different tables or passages of the source.
B1: fluorescent NOXA peptide (peptide)
chain: AELEVECATQLRRFGDKLNFRQKLL
HELM: PEPTIDE1{[O=C1OC2(c3ccc(O)cc3Oc3cc(O)ccc32)c2ccc(C(=O)[*:2])cc21].[O=C(CCCCCN[*:1])[*:2]].A.E.L.E.V.E.C.A.T.Q.L.R.R.F.G.D.K.L.N.F.R.Q.K.L.L.[am]}$$$$V2.0
SMILES: CC(C)C[C@H](NC(=O)[C@H](CC(C)C)NC(=O)[C@H](CCCCN)NC(=O)[C@H](CCC(N)=O)NC(=O)[C@H](CCCNC(=N)N)NC(=O)[C@H](Cc1ccccc1)NC(=O)[C@H](CC(N)=O)NC(=O)[C@H](CC(C)C)NC(=O)[C@H](CCCCN)NC(=O)[C@H](CC(=O)O)NC(=O)CNC(=O)[C@H](Cc1ccccc1)NC(=O)[C@H](CCCNC(=N)N)NC(=O)[C@H](CCCNC(=N)N)NC(=O)[C@H](CC(C)C)NC(=O)[C@H](CCC(N)=O)NC(=O)[C@@H](NC(=O)[C@H](C)NC(=O)[C@H](CS)NC(=O)[C@H](CCC(=O)O)NC(=O)[C@@H](NC(=O)[C@H](CCC(=O)O)NC(=O)[C@H](CC(C)C)NC(=O)[C@H](CCC(=O)O)NC(=O)[C@H](C)NC(=O)CCCCCNC(=O)c1ccc2c(c1)C(=O)OC21c2ccc(O)cc2Oc2cc(O)ccc21)C(C)C)[C@@H](C)O)C(N)=O
B2: fluorescent BID peptide (peptide)
chain: QEDIIRNIARHLAQVGDSMDR
HELM: PEPTIDE1{[O=C1OC2(c3ccc(O)cc3Oc3cc(O)ccc32)c2ccc(C(=O)[*:2])cc21].[O=C(CCCCCN[*:1])[*:2]].Q.E.D.I.I.R.N.I.A.R.H.L.A.Q.V.G.D.S.M.D.R.[am]}$$$$V2.0
SMILES: CC[C@H](C)[C@H](NC(=O)[C@H](CC(N)=O)NC(=O)[C@H](CCCNC(=N)N)NC(=O)[C@@H](NC(=O)[C@@H](NC(=O)[C@H](CC(=O)O)NC(=O)[C@H](CCC(=O)O)NC(=O)[C@H](CCC(N)=O)NC(=O)CCCCCNC(=O)c1ccc2c(c1)C(=O)OC21c2ccc(O)cc2Oc2cc(O)ccc21)[C@@H](C)CC)[C@@H](C)CC)C(=O)N[C@@H](C)C(=O)N[C@@H](CCCNC(=N)N)C(=O)N[C@@H](Cc1c[nH]cn1)C(=O)N[C@@H](CC(C)C)C(=O)N[C@@H](C)C(=O)N[C@@H](CCC(N)=O)C(=O)N[C@H](C(=O)NCC(=O)N[C@@H](CC(=O)O)C(=O)N[C@@H](CO)C(=O)N[C@@H](CCSC)C(=O)N[C@@H](CC(=O)O)C(=O)N[C@@H](CCCNC(=N)N)C(N)=O)C(C)C

Tests used:
Test in all cases: FP
[1] = biological target: human BCL-2 fused to the N-terminal half of T7 RNAP (human)
[2] = biological target: GST only (Schistosoma japonicum)
[3] = biological target: B2-1
[4] = biological target: B4-2
[5] = biological target: B3-1
[6] = biological target: B1-3
[7] = biological target: T1, hsMCL-1 variant L1-1 (human, UniProt Q07820)
[8] = biological target: L3-3
[9] = biological target: L4-3
[10] = biological target: L3-1
[11] = biological target: T1, hsMCL-1 variant L1-1; remark: listed apart in the source
[12] = biological target: L3-3; remark: listed apart in the source
[13] = biological target: L4-3; remark: listed apart in the source
[14] = biological target: L3-1; remark: listed apart in the source
[15] = biological target: B2-1; remark: listed apart in the source
[16] = biological target: B4-2; remark: listed apart in the source
[17] = biological target: B3-1; remark: listed apart in the source
[18] = biological target: B1-3; remark: listed apart in the source

Sequence of human BCL-2 fused to the N-terminal half of T7 RNAP (human) (chain, as listed by the source): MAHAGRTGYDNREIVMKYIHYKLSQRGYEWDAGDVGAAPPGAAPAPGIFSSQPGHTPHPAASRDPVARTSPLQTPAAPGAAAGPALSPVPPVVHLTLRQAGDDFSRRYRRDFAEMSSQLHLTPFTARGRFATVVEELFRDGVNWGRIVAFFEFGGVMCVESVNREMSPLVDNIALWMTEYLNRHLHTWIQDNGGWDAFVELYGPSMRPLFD

| Binder | Kd [1] | Kd [2] | Kd [3] | Kd [4] | Kd [5] | Kd [6] | Kd [7] | Kd [8] | Kd [9] | Kd [10] | Kd [11] | Kd [12] | Kd [13] | Kd [14] | Kd [15] | Kd [16] | Kd [17] | Kd [18] |
| --- | --- | --- | --- | --- | --- | --- | --- | --- | --- | --- | --- | --- | --- | --- | --- | --- | --- | --- |
| B1 | 948 nM | > 1000 nM | 340 nM | 186 nM | 53.4 nM | 137 nM | 489 nM | > 1000 nM | > 1000 nM | 949 nM |  |  |  |  |  |  |  |  |
| B2 | 87.6 nM | > 1000 nM |  |  |  |  |  |  |  |  | 5.38 nM | 9.29 nM | 18.7 nM | 25.3 nM | 43.3 nM | 5.16 nM | 33.4 nM | 7.21 nM |

Reference: PMC8282340 (2021)
